The assay has as its target amyloid beta (Aβ, measured as Aβ40) in conditioned medium from Tg2576 neuronal cultures (TgCM) (human and murine) (UniProt P05067). Description: immunodepletion of TgCM with 9 µg 6E10 and Protein G-Sepharose beads; Aβ40 ELISA of the supernatant (TgCM about 12 nM Aβ40 before depletion).

Sequence of amyloid beta (Aβ, measured as Aβ40) in conditioned medium from Tg2576 neuronal cultures (TgCM) (human and murine) (P05067 672-711 limits assumed): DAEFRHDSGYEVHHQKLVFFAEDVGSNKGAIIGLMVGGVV

Substance “6E10 (Signet), a high-titer mouse monoclonal Aβ antibody reactive to amino acid residue 1-16 of beta amyloid” came in with an Aβ40 left in the medium after immunodepletion of 0.1 nM.

The values are drawn from patent US20160333063A1, “SOLUBLE HIGH MOLECULAR WEIGHT (HMW) TAU SPECIES AND APPLICATIONS THEREOF” (THE GENERAL HOSPITAL CORPORATION, priority 2013, published 2016).
